{"source": "the DeepSol protein solubility set", "data": [{"test": "soluble on expression in E. coli; label from the status in PepcDB or PDB records", "values": [{"sequence": "MAHHHHHHMTSPALAPPQNTAEFWIKRLQLVPHPEGGYYSEVVRSAHKVDNEEGNRRHAYTTIYFLCTPESPSHLHRLCSDETWMYHAGDPLQLHVILKDPQDEDRIAAQPPAAPQAETDTADARPKYQVYRRVLVGARVERGELLQYTVPGGAIFGSSVAADGADGQAGYSLVSCIVSPGFDYRDFEIFTQAQLMELYPQHEAVIKQMAYETLPNHARLQTTEI", "soluble on expression in E. coli": "soluble"}, {"sequence": "MCGKTILLEVTPCDNFVFNKSTNLTDTAYVTLKNISEKPVCFKVKTSVPNMYVSRPNPDLLKPGEARQLSVKFRSSDKVSLNAKSYKLKIESCEFESEDIDDLKSFWSSIPNEKILVHKSPIILGTGSSPDFRNDQIASESSRQSSPIQNVSDDGKSSHHSTAKQLQENNENSKSLKYTKQLVEVPLGENQQADQTGTTCDKKDEFQKKNQLEVEIKFVDKIHEIKSQLEDSFELKLKEMEMRLEEKFEKRISRLTQFMETISLSNSPGNSRRVFELDDNFSIVAKKELEQMRQDFEKVLDGQNKIAEEKMNELRKRREELQV", "soluble on expression in E. coli": "not soluble"}, {"sequence": "MSLKAFLPLLFSFFFIISCQQHKEATISPIDEEDELQEEADSLPRATAIFWLDKYHMKELKKDDVLTFRTAKAKVVIRNDGTIDLLSFVEQQPGNAQRYIRYRLKDFKVKKILMDNGYINPGEQYVQLRYIPALARRVKEGHHHHHH", "soluble on expression in E. coli": "soluble"}, {"sequence": "MGDAPSPEEKLHLITRNLQEVLGEEKLKEILKERELKIYWGTATTGKPHVAYFVPMSKIADFLKAGCEVTILFADLHAYLDNMKAPWELLELRVSYYENVIKAMLESIGVPLEKLKFIKGTDYQLSKEYTLDVYRLSSVVTQHDSKKAGAEVVKQVEHPLLSGLLYPGLQALDEEYLKVDAQFGGIDQRKIFTFAEKYLPALGYSKRVHLMNPMVPGLTGSKMSSSEEESKIDLLDRKEDVKKKLKKAFCEPGNVENNGVLSFIKHVLFPLKSEFVILRDEKWGGNKTYTAYVDLEKDFAAEVVHPGDLKNSVEVALNKLLDPIREKFNTPALKKLASAAYPDPSKQKPMAKGPAKNSEPEEVILEHHHHHH", "soluble on expression in E. coli": "soluble"}, {"sequence": "MTLMKKFYVTTPIYYVNDVPHLGHAYTTIAADTIARYYRLRDYDVFFLTGTDEHGLKIQKKAEELGISPKELVDRNAERFKKLWEFLKIEYTKFIRTTDPYHVKFVQKVFEECYKRGDIYLGEYEGWYCVGCEEFKSEAELAEDHTCPIHQKKCEYIKEPSYFFRLSKYQDKLLELYEKNPEFIQPDYRRNEIISFVKQGLKDLSVTRPRSRVKWGIPVPFDPEHTIYVWFDALFNYISALEDKVEIYWPADLHLVGKDILRFHTVYWPAFLMSLGYELPKKVFAHGWWTVEGKKMSKTLGNVVDPYEVVQEYGLDEVRYFLLREVPFGQDGDFSKKAILNRINGELANEIGNLYSRVVNMAHKFLGGEVSGARDEEYAKIAQESIKNYENYMEKVNFYKAIEEILKFTSYLNKYVDEKQPWALNKERKKEELQKVLYALVDGLFVLTHLLYPITPNKMKEALQMLGEKEFLKELKPYSKNTYKLGERKILFPKREG", "soluble on expression in E. coli": "soluble"}, {"sequence": "MENKEISYEIIDFSGETNVQFRTSVDPGSYIPTHWHRAIEIIYMQEGSLDVIVESESFTIYKGDCILVNGNVLHSTKCTAPNTAILLQIPLNFMEKYIPNLGQLIFLWDYRTEDPVKKTKLMMLKTTLEQLQVINDIQPDGYLLRFNSLIFELMFQLYHNFSVQVFPQDINHKKKEMDRLDP", "soluble on expression in E. coli": "not soluble"}, {"sequence": "TDLSQRPRRLRKSPALRAMFEETTLSLNDLVLPIFVEEEIDDYKAVEAMPGVMRIPEKHLAREIERIANAGIRSVMTFGISHHTDETGSDAWREDGLVARMSRICKQTVPEMIVMSDTCFCEYTSHGHCGVLKEHGVDNDATLENLGKQAVVAAAAGADFIAPSAAMDGQVQAIRQALDAAGFKDTAIMSYSTKFASSFYGPFREAAGSALKGDRKSYQMNPMNRREAIRESLLDEAQGADCLMVKPAGAYLDIVRELRERTELPIGAYQVSGEYAMIKFAALAGAIDEEKVVLESLGSIKRAGADLIFSYFALDLAEKKILR", "soluble on expression in E. coli": "soluble"}, {"sequence": "MGSDKIHHHHHHMIMKFFDREREINEILGILDETPDNIYFIYGPINSGKTTLMMEIINRLKDDKKYRIFYYNLRGVRISSYSDFFDIMFEIREDNKFKQMVKDADVLVEGIKFIEKTAKLFNESIILPSDLAKVILSKQKGFDVFRYLERVFREMNKKGLKPVIIIDELQRLKGLKSNGELIDDLFNFFVRLTKELHITHCFCLSSDSLFIEYVYDRAELRGRADYILVDDFDKETALKFMDFLSEDILGRKLSEDEKELIYSYVGGKPKDVYDVIIKLKLGKELKDILEFMLKEEIQKLKYFLEDVKEDDEELYNKIVDALKIFKENYEIEDIKIPKNIREFLVKKNILFLNPIEGTLKPQSFLVWNAIKKLLNGH", "soluble on expression in E. coli": "not soluble"}, {"sequence": "MVTAREVGRIGLRKLLQRIGIVAESMTPLATDPVEVTQLLDARWYDERLRALADELGRDPDSVRAEAAGYLREMAASLDERAVQAWRGFSRWLMRAYDVLVDEDQITQLRKLDRKATLAFAFSHRSYLDGMLLPEAILANRLSPALTFGGANLNFFPMGAWAKRTGAIFIRRQTKDIPVYRFVLRAYAAQLVQNHVNLTWSIEGGRTRTGKLRPPVFGILRYITDAVDEIDGPEVYLVPTSIVYDQLHEVEAMTTEAYGAVKRPEDLRFLVRLARQQGERLGRAYLDFGEPLPLRKRLQEMRADKSGTGSEIERIALDVEHRINRATPVTPTAVVSLALLGADRSLSISEVLATVRPLASYIAARNWAVAGAADLTNRSTIRWTLHQMVASGVVSVYDAGTEAVWGIGEDQHLVAAFYRNTAIHILVDRAVAELALLAAAETTTNGSVSPATVRDEALSLRDLLKFEFLFSGRAQFEKDLANEVLLIGSVVDTSKPAAAADVWRLLESADVLLAHLVLRPFLDAYHIVADRLAAHEDDSFDEEGFLAECLQVGKQWELQRNIASAESRSMELFKTALRLARHRELVDGADATDIAKRRQQFADEIATATRRVNTIAELARRQLEHHHHHH", "soluble on expression in E. coli": "not soluble"}, {"sequence": "MGVALAAMCLMSAQAQRRNEIQVPNLNGYTTLKCDFHMHSVFSDGLVWPTVRVDEAYREGLDAISLTEHIEYRPHKKDIIADHNRSYELSQKQAKKLGILLIRGSEITRSMPPGHFNAIFLNDSNPLEQKAYKDAFNEAKKQGAFIFWNHPGWARQQPDSTLWWPEHTQLYNDGCMHGIEVANGGLFMPEAIQWCLDKNLTMIGTSDIHQPIQTDYDFSKGEHRTMTFVFAKERSPEGIREALDNRRTAVYYRELVIGREEILRPFFEKCVDIKEVKRTEKEVTFSVMNATDLVLKLKKTAHDPSLVYFREMTLKPHTQHTISVKFDNGIKGGDCNFEVTNFIVAPDKGLDYTIKL", "soluble on expression in E. coli": "not soluble"}, {"sequence": "MKSVMSNPTFRQDSIRMFRGRKPPQKGKPAMEIKSERSDSQHTLTITVPLGKASRNDQPPSNLTEEAAKKVAGTGRNDGKKVQFAEKLVNKTKSPSTGPSTSKKLQKSQKTQKSSKKSQKKSKKSKKSSKSK", "soluble on expression in E. coli": "not soluble"}, {"sequence": "MSLKAVQQHAFGGPEVLSYEDAPMPVLQAGEVLVQVYAVGVNPPDSYLRDGYQQLPPEWRPEVRFPLILGTDLSGVVVARADDVREVAVGDEVYAMARFPEGAAGGSRAYAEYVSVPVSDLARKPLTLSHQQAAAVPMSLLTAWQFMIDPGHEVANPLQPGPHRPVPLAGKRVLVNGAAGGVGHFAVQLAKWQGAEVIAVAAGCHEAFLRQLGADSVIDYTTTAVEETVRDLDLVIDAPGGPASGRFLRTLRPGGALYPIFPLGFAGAEEARQRGVTVSTTQVRSSGAQLARLADLLDAGVIRVAIDSVFPLAQAQMAHERAAQGHLEGKIVLSVMDSEGHHHHHH", "soluble on expression in E. coli": "soluble"}, {"sequence": "MGSDKIHHHHHHMTYIALGMAAIGRPHYINIKTIDSPKDLTKAELHAHATAVLDAAYAMGIRHIDTAPGYGIAEEILIDWLRRSGHEDMTVSTKWGYTYTANFEKNPLQHEVKEHSLHVLQQQWLYSRQLLPPLNMYQIHSATSDSGVLNNQGVLDKLFELKEQFGIEIGLTTSGLTQNATIQQALKITNQGKPLFTIFQVTYNVFEQSIADSVALLKNQGARIIIKEGLANGRIFTCADFPQYAPAYALLERLAGKYHVGVDAVALRFCIDALRPLYVLSGAATIVQLKENLLAETFTLQSEELEELKSIHVASEAYWNERKQLKWN", "soluble on expression in E. coli": "not soluble"}, {"sequence": "MEMTNAQRLILSNQYKMMTMLDPTNAERYRRLQTIIERGYGLQMRELDREFGELTEETCRTIIDIMEMYHALHVSWTNLKDTQAIDERRVTFLGFDAATEARYLGYVRFMVNIEGRYTHFDAGTHGFNAQTPMWEKYQRMLNVWHACPRQYHLSANEINQIINA", "soluble on expression in E. coli": "not soluble"}, {"sequence": "MQVKLGFTEHSFNLIVSSTSMFKNLLASVGIGAAKVDTRLFNNSVIPGGILEGEVYIRGGDVAQDIQDIYLKLATEYQREVDDSTVTEECVMVNYRLLEHLTIQPKEEVVIPFSLNLPDEMPLTFGHIPVYVRTGLDIKSAINPRDRDYLEVRTHPLMQRVLLAIEHLGFHLHKVDCEYTHYFGGAYPFVQELEFRPTGKYRHSLDELEVVFRLTADQLEVLLEIDKRARGWKGWLEEAFDIDERYARLIVKQSDLYETDVEALIDQIIQSHLS", "soluble on expression in E. coli": "not soluble"}, {"sequence": "MNSITVDFLNDQVFQGPMDGTEDKKDGNPKKSTCEKHWAVIDQHNVAICVQLCSFVEGEEKKCAEYYSDKVGGVLKFGRYSLKTIDVKTDLKEFTDKKGFTLYTVEITNSKKKDAPKKTVDILYFSGWPDHGAPQEAYPALEMLKFCESYKKNVLVHCSAGVGRTGTLVAIKYGIELCLKKKVI", "soluble on expression in E. coli": "not soluble"}, {"sequence": "MNSQQDLTMHNRSAAILLRPAAALYGMVMSLRNCLYDQGIFKSWHSPIPVVSVGNITTGGTGKTPLVDWIVKFYEASGIATAIVSRGYGRRTKGVQLVSDGGRLLLGSRDAGDETAMLAARNPRTIVVVAEKRVEGVQFLMHQFADRLPGVIVLDDAFQHRKIARDLDIVVVNAGAPEEIDAMLPAGRLREPLRGLRRAHLIILGKITDDANSATLLQTLRETGKPVIRSKIKPGKLIHVDGSENETNESVKTLAFAGIGAPEGFLHSLKTAGIKIAATKFFRDHEPYTESAIRSIIGEAKRQGLVPVTTEKDWFRIADEPELAEMLRQVGCRYLTITPEFPDGTQELERQLLDVLKRLEHHHHHH", "soluble on expression in E. coli": "not soluble"}, {"sequence": "MAHHHHHHMHNSVPASNTCSPFREETVSKRGKRSRGTGGDDKITRGTCSQPFSVITLPPGKLLEWLVCSPCRVYDVNLPRSRNNDNNISSLQCAVLPNFFVEYGGRSYSCVAKVCKPQLRKVLLRALAAVRQEMGSVDDIPHDSLLVVAVSPINAFSSECIHDASRTAMPRAREGCKIVGLCVARELSAPHRMHCESNWSHEKSEASGVGAAVQEGLGDCWEEDATRVGGTNNVRKAFCGVQLVWVADCYRRHGVAKVLVDTARRHISYGFEVPVERVAFSEPTSLGKLFAKSYSGRPDFLIF", "soluble on expression in E. coli": "not soluble"}, {"sequence": "MRVEPLPGVPAATVDTDGERLLAVADYHAGIEAGLRYEGVELQSAAEARRERLLTCLRRARADRLVVIGDLGHAIGDPFADERAELETLFDALDVPVTLVKGNHD", "soluble on expression in E. coli": "not soluble"}, {"sequence": "MTSIEPTHTGKKVIVGMSGGVDSSVSAYLLMQQGYQVEGLFMKNWEEDDNDEYCAAAEDLKDAQAVCDKLGIKLHTVNFAAEYWDNVFEYFLAEYKAGRTPNPDIMCNKEIKFKAFLEFADDILDADYIAMGHYVRRRDNEDGTTQMLRGVDNNKDQSYFLYTLSHEQVARSLFPVGELEKHEVREIAKQMGLITHDKKDSTGICFIGERKFTEFLGNYLPAQPGNIETADGEVIGTHQGLMYHTLGQRKGLGIGGMKNSNDDPWYVVDKDLKRNVLVVGQGGHHPRLMSNGMLVNQLHWVDRKGPINGSQIVVKTRYRQQDIPCTLTYLDDNTLKVVFDEPVAAVTPGQSAVFYDGEVCLGGGIIDQLIRGLEHHHHHH", "soluble on expression in E. coli": "soluble"}]}]}
